Data reported in patent publication US20200317768A1 (published 2020).

T1: cynomolgus monkey FcγRIIb extracellular domain, C-terminal His-tag (cynomolgus monkey)
T1 construct: also called cyno FcγRIIb; cynoFcγRIIb
T1 chain: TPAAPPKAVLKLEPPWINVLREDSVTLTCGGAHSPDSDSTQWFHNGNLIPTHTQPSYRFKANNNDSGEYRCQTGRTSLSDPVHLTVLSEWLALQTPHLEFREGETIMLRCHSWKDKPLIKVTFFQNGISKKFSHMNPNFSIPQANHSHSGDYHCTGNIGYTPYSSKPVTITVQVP

T2: human FcγRIIaH extracellular domain, C-terminal His-tag (human, UniProt P12318 34-217)
T2 construct: also called human FcγRIIa (type H); FcgRIIaH
T2 sequence: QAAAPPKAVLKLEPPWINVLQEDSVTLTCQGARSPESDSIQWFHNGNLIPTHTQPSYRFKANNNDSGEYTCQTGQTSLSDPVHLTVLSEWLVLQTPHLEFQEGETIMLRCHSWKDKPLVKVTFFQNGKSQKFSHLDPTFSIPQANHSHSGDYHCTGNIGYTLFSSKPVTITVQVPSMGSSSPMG

T3: human FcγRIIb extracellular domain, C-terminal His-tag (human, UniProt P31994 43-217)
T3 construct: also called human FcgRIIb; FcgRIIb
T3 sequence: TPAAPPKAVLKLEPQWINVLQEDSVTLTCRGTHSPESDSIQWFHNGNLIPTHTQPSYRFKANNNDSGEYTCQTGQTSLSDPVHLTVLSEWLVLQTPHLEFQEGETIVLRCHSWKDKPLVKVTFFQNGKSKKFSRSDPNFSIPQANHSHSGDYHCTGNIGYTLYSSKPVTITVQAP

T4: cynomolgus monkey FcγRIIa3 extracellular domain, C-terminal His-tag (cynomolgus monkey)
T4 construct: also called cyno FcγRIIa3; cynoFcgRIIa3
T4 chain: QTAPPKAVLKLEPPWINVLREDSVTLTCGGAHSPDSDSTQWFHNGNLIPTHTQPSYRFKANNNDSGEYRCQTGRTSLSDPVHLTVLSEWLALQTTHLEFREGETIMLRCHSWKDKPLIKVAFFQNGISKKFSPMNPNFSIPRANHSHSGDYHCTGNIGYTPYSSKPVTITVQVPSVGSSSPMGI

T5: cynomolgus monkey FcγRIIa1 extracellular domain, C-terminal His-tag (cynomolgus monkey)
T5 construct: also called cyno FcγRIIa1; cynoFcgRIIa1
T5 chain: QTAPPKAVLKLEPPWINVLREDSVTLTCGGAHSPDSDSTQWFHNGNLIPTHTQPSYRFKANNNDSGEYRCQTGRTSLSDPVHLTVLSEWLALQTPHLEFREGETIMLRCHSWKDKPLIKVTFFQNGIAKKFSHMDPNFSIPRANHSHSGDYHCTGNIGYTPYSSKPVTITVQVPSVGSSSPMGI

T6: cynomolgus monkey FcγRIIa2 extracellular domain, C-terminal His-tag (cynomolgus monkey)
T6 construct: also called cyno FcγRIIa2; cynoFcgRIIa2
T6 chain: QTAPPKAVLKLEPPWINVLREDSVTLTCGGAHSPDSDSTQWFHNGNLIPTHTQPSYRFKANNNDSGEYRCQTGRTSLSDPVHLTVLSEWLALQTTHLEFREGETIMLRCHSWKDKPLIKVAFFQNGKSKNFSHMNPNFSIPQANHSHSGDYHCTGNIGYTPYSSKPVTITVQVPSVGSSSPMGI

T7: human FcγRIIaR extracellular domain, C-terminal His-tag (human, UniProt P12318 34-217)
T7 construct: also called human FcγRIIa (type R); FcgRIIaR
T7 chain: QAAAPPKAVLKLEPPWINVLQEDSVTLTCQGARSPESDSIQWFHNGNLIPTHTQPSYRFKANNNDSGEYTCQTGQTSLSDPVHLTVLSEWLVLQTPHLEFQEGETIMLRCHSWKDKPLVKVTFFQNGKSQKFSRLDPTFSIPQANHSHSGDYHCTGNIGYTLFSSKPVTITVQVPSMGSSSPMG


Experiments:
Assay in all cases: SPR (Biacore); KD of SG1 / KD of variant;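 further: relative to parent M103205H795-SG1 carrying the SG1 human heavy chain constant region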
[1] = target: T1, cynomolgus monkey FcγRIIb extracellular …
Procedure: (§1) The kinetic analysis of interactions between these antibodies and FcγR was carried out using BIACORE® T200 or BIACORE® 4000 (GE Healthcare). HBS-EP+ (GE Healthcare) was used as the running buffer, and the measurement temperature was set to 25° C. A chip produced by immobilizing Protein A. Protein A/G or mouse anti-human IgG kappa light chain (BD Biosciences) onto a Series S Sensor Chip CM4 or CM5 (GE Healthcare) by the amine-coupling method was used. […] After the measurement, the antibody captured on the chip was washed off by allowing reaction with 10 mM glycine-HCl, pH1.5 and 25 mM NaOH so that the chip was regenerated and used repeatedly. The sensorgrams obtained as measurement results were analyzed by the 1:1 Langmuir binding model using the BIACORE® Evaluation Software to calculate the binding rate constant ka (L/mol/s) and dissociation rate constant kd (l/s), and the dissociation constant KD (mol/L) was calculated from these values. […] Regarding such interactions, KD values were calculated using the following 1:1 binding model described in BIACORE® T100 Software Handbook BR1006-48 Edition AE.
(§2) The behavior of interacting molecules according to the 1:1 binding model on BIACORE® can be described by Equation 1: Req=C·R max/(KD+C)+RI, wherein, Req is a plot of steady-state binding levels to analyte concentration. C is concentration, RI is bulk refractive index contribution in the sample, and Rmax is analyte binding capacity of the surface. When this equation is rearranged, KD can be expressed as Equation 2: KD=C·Rmax/(Req−RI)−C. KD can be calculated by substituting the values of Rmax, RI, and C into Equation 1 or Equation 2. From the current measurement conditions, RI=0, C=2 μmol/L can be used.

[2] = target: T2, human FcγRIIaH extracellular domain, …
Procedure: as §1, §2

[3] = target: T3, human FcγRIIb extracellular domain, …
Procedure: as §1, §2

[4] = target: T4, cynomolgus monkey FcγRIIa3 …
Procedure: as §1, §2

[5] = target: T5, cynomolgus monkey FcγRIIa1 …
Procedure: as §1, §2

[6] = target: T6, cynomolgus monkey FcγRIIa2 …
Procedure: as §1, §2

[7] = target: T7, human FcγRIIaR extracellular domain, …
Procedure: as §1, §2

| KD fold (SG1 = 1) [1] | KD fold (SG1 = 1) [2] | KD fold (SG1 = 1) [3] | KD fold (SG1 = 1) [4] | KD fold (SG1 = 1) [5] | KD fold (SG1 = 1) [6] | KD fold (SG1 = 1) [7] | Binder |
| --- | --- | --- | --- | --- | --- | --- | --- |
| 8.9 fold | 0.8 fold | 6.4 fold | 4.4 fold | 2.8 fold | 3.4 fold | 0.5 fold | M103205H795-MY052/M103202L889-SK1 (antibody, human IgG1, kappa, Substitutions introduced into M103205H795-SG1; expressed with M103202L889-SK1 as light chain) heavy: QVTLKESGPVLVKPTETLTLTCTVSGIDLSHDDISWVRQAPGKGLEWVGIISYAGSTYYASWAKGRLTISKDTSKNQVVLTMTNMDPVDTATYYCARGVPAYSHGGDLWGQGTLVTVSSASTKGPSVFPLAPSSKSTSGGTAALGCLVKDYFPEPVTVSWNSGALTSGVHTFPAVLQSSGLYSLSSVVTVPSSSLGTQTYICNVNHKPSNTKVDKKVEPKSCDKTHTCPPCPAPELLNGPSVFLFPPKPKDTLMISRTPEVTCVVVDVSEEDPEVKFNWYVDGVEVHNAKTKPREEQYNSTYRVVSVLTVLHQDWLNGKEYKCKVSNKALPAPIEKTISKAKGQPREPQVYTLPPSREEMTKNQVSLTCLVKGFYPSDIAVEWESNGQPENNYKTTPMVLDSDGSFFLYSKLTVDKSRWQQGNVFSCSVMHEALHNHYTQKSLSLSP light: DIVMTQSPATLSLSPGERATLSCTSSQSVYHANWLSWFQQKPGQPPKLLIYWASTLAYGVPSRFSGSGSGTDFTLTISSLQPEDAATYYCAGGYGGGRYAFGQGTKVEIKRTVAAPSVFIFPPSDEQLKSGTASVVCLLNNFYPREAKVQWKVDNALQSGNSQESVTEQDSKDSTYSLSSTLTLSKADYEKHKVYACEVTHQGLSSPVTKSFNRGEC |
| 2.3 fold | 0.7 fold | 14.4 fold | 2.2 fold | 1.4 fold | 1.9 fold | 1.7 fold | M103205H795-MY115/M103202L889-SK1 (antibody, human IgG1, kappa, Substitutions introduced into M103205H795-SG1; expressed with M103202L889-SK1 as light chain) heavy: QVTLKESGPVLVKPTETLTLTCTVSGIDLSHDDISWVRQAPGKGLEWVGIISYAGSTYYASWAKGRLTISKDTSKNQVVLTMTNMDPVDTATYYCARGVPAYSHGGDLWGQGTLVTVSSASTKGPSVFPLAPSSKSTSGGTAALGCLVKDYFPEPVTVSWNSGALTSGVHTFPAVLQSSGLYSLSSVVTVPSSSLGTQTYICNVNHKPSNTKVDKKVEPKSCDKTHTCPPCPAPELLNGPSVFLFPPKPKDTLMISRTPEVTCVVVDVAEEDPEVKFNWYVDGVEVHNAKTKPREEQYNSTYRVVSVLTVLHQDWLNGKEYKCKVSNKALPAPIEKTISKAKGQPREPQVYTLPPSREEMTKNQVSLTCLVKGFYPSDIAVEWESNGQPENNYKTTPMVLDSDGSFFLYSKLTVDKSRWQQGNVFSCSVMHEALHNHYTQKSLSLSP light: DIVMTQSPATLSLSPGERATLSCTSSQSVYHANWLSWFQQKPGQPPKLLIYWASTLAYGVPSRFSGSGSGTDFTLTISSLQPEDAATYYCAGGYGGGRYAFGQGTKVEIKRTVAAPSVFIFPPSDEQLKSGTASVVCLLNNFYPREAKVQWKVDNALQSGNSQESVTEQDSKDSTYSLSSTLTLSKADYEKHKVYACEVTHQGLSSPVTKSFNRGEC |
| 5.1 fold | 1.4 fold | 9.4 fold | 4.7 fold | 2.9 fold | 4.3 fold | 1.3 fold | M103205H795-MY101/M103202L889-SK1 (antibody, human IgG1, kappa, also called MS1032LO06-MY101) heavy: QVTLKESGPVLVKPTETLTLTCTVSGIDLSHDDISWVRQAPGKGLEWVGIISYAGSTYYASWAKGRLTISKDTSKNQVVLTMTNMDPVDTATYYCARGVPAYSHGGDLWGQGTLVTVSSASTKGPSVFPLAPSSKSTSGGTAALGCLVKDYFPEPVTVSWNSGALTSGVHTFPAVLQSSGLYSLSSVVTVPSSSLGTQTYICNVNHKPSNTKVDKKVEPKSCDKTHTCPPCPAPELLNGPSVFLFPPKPKDTLMISRTPEVTCVVVDVSEEDPEVKFNWYVDGVEVHNAKTKPREEQYNSTYRVVSVLTVLHQDWLNGKEYKCKVSNKALPKPIEKTISKAKGQPREPQVYTLPPSREEMTKNQVSLTCLVKGFYPSDIAVEWESNGQPENNYKTTPMVLDSDGSFFLYSKLTVDKSRWQQGNVFSCSVMHEALHNHYTQKSLSLSP light: DIVMTQSPATLSLSPGERATLSCTSSQSVYHANWLSWFQQKPGQPPKLLIYWASTLAYGVPSRFSGSGSGTDFTLTISSLQPEDAATYYCAGGYGGGRYAFGQGTKVEIKRTVAAPSVFIFPPSDEQLKSGTASVVCLLNNFYPREAKVQWKVDNALQSGNSQESVTEQDSKDSTYSLSSTLTLSKADYEKHKVYACEVTHQGLSSPVTKSFNRGEC |
| 4.6 fold | 0.5 fold | 8.1 fold | 13.1 fold | 2.7 fold | 5.7 fold | 0.8 fold | M103205H795-MY105/M103202L889-SK1 (antibody, human IgG1, kappa, Substitutions introduced into M103205H795-SG1; expressed with M103202L889-SK1 as light chain) heavy: QVTLKESGPVLVKPTETLTLTCTVSGIDLSHDDISWVRQAPGKGLEWVGIISYAGSTYYASWAKGRLTISKDTSKNQVVLTMTNMDPVDTATYYCARGVPAYSHGGDLWGQGTLVTVSSASTKGPSVFPLAPSSKSTSGGTAALGCLVKDYFPEPVTVSWNSGALTSGVHTFPAVLQSSGLYSLSSVVTVPSSSLGTQTYICNVNHKPSNTKVDKKVEPKSCDKTHTCPPCPAPELLNGPVVFLFPPKPKDTLMISRTPEVTCVVVDVSEEDPEVKFNWYVDGVEVHNAKTKPREEQYNSTYRVVSVLTVLHQDWLNGKEYKCKVSNKALPAPIEKTISKAKGQPREPQVYTLPPSREEMTKNQVSLTCLVKGFYPSDIAVEWESNGQPENNYKTTPMVLDSDGSFFLYSKLTVDKSRWQQGNVFSCSVMHEALHNHYTQKSLSLSP light: DIVMTQSPATLSLSPGERATLSCTSSQSVYHANWLSWFQQKPGQPPKLLIYWASTLAYGVPSRFSGSGSGTDFTLTISSLQPEDAATYYCAGGYGGGRYAFGQGTKVEIKRTVAAPSVFIFPPSDEQLKSGTASVVCLLNNFYPREAKVQWKVDNALQSGNSQESVTEQDSKDSTYSLSSTLTLSKADYEKHKVYACEVTHQGLSSPVTKSFNRGEC |
